Results from patent US20060110789A1, “Methods to mediate polyketide synthase module effectiveness” (priority 2002, published 2006).

B1: diketide-eryLDD(Ø): diketide on the DEBS loading didomain with no C-terminal linker (conjugate)
chain: MSGPRSRTTSRRTPVRIGAVVVASSTSELLDGLAAVADGRPHASVVRGVARPSAPVVFVFPGQGAQWAGMAGELLGESRVFAAAMDACARAFEPVTDWTLAQVLDSPEQSRRVEVVQPALFAVQTSLAALWRSFGVTPDAVVGHSIGELAAAHVCGAAGAADAARAAALWSREMIPLVGNGDMAAVALSADEIEPRIARWDDDVVLAGVNGPRSVLLTGSPEPVARRVQELSAEGVRAQVINVSMAAHSAQVDDIAEGMRSALAWFAPGGSEVPFYASLTGGAVDTRELVADYWRRSFRLPVRFDEAIRSALEVGPGTFVEASPHPVLAAALQQTLDAEGSSAAVVPTLQRGQGGMRRFLLAAAQAFTGGVAVDWTAAYDDVGPNPALCRSSRRPRRKTSRPSPASTGTRHRTCCERLLAVVNGETAALAGREADAEATFRELGLDSVLAAQLRAKVSAAIGREVNIALLYDHPTPRALAEALAAGT
modifications: non-natural residues
notes: diketide on the DEBS loading didomain with no C-terminal linker
B2: holo-ACP4(4): phosphopantetheinylated DEBS ACP4 domain with its natural C-terminal linker (protein)
chain: HHHHHHNVVDRLAGRSESDQVAGLAELVRSHAAAVSGYGSADQLPERKAFKDLGFDSLAAVELRNRLGTATGVRLPSTLVFDHPTPLAVAEHLRDRLFAASPAVDIGDRLDELEKALEALSAEDGHDDVGQRLESLLRRWNSRRADAPSTSAISEDASDDELFSMLDQRFGGGEDL
B3: diketide-ACP2(Ø): diketide on isolated ACP2 domain without linker region (conjugate)
chain: HHHHHHDRLAGLPRAERTAELVRLVRTSTATVLGHDDPKAVRATTPFKELGFDSLAAVRLRNLLNAATGLRLPSTLVFDHPNASAVAGFLDAELG

How the values were obtained:
Format in all cases: biochemical
[1] = molecular target: T1, (5)M2+TE (Saccharopolyspora erythraea, UniProt Q03131+Q03133); experiment: Substrate transfer and elongation assay, acceptor DEBS module 2; details: 20 μM substrate, 2 hours
T1 construct: The protein was, in each case, a single module of the DEBS PKS fused to the thioesterase (TE) termination region of module 6; first 39 amino acids of module 5 (N-ERL); made in house; host or cells: E. coli (BL21(DE3) with sfp)
Experimental: (§1) Substrate transfer and elongation assays. Qualitative assays were performed with a diketide-ACP or diketide-PCP substrate either taken directly from the so phosphopantetheinlyation reaction or after further purification of the substrate. These assays were performed with 20 μM diketide-ACP/PCP substrate for 2 hours in the following reaction conditions: 1 μM acceptor module, 0.5 mM ^14C-methylmalonyl CoA, 4 mM NADPH in buffer C, 30° C. After quenching by addition of 250 μL EtOAc and vortexing, the products were extracted with 2×250 μL EtOAc, resolved on a silica gel TLC plate, and visualized on a Packard InstantImager.
(§2) The kinetics of substrate transfer at the module 2-module 3 interface followed by elongation and product release were examined as a function of the k60 μM and kcat/KM values of the overall reaction. […] In many cases, the k60μm values approximate the maximal overall turnover rates, as determined by back calculating the KM value for the reactions. True saturation kinetics were not practical because of the technical limitations (e.g., solubility) and limited supply associated with high molecular weight substrates such as diketide-ACP and diketide-PCP. kcat/KM values were determined by competitive assay of the substrate of interest against a substrate with a known kcat/KM value, as previously described (Wu, et al., (2001) J. Am. Chem. Soc. 123, 6465-6474). […]

[2] = molecular target: T2, (5)M6+TE (Saccharopolyspora erythraea, UniProt Q03133, DEL53-1503); experiment: Substrate transfer and elongation assay, acceptor DEBS module 6; details: 20 μM substrate, 2 hours
T2 construct: The protein was, in each case, a single module of the DEBS PKS fused to the thioesterase (TE) termination region of module 6; first 39 amino acids of module 5 (N-ERL); made in house; host or cells: E. coli (BL21(DE3) with sfp)
Experimental: as §1, §2

[3] = molecular target: T1, (5)M2+TE; experiment: Labeling of holo-ACP4(4) with 14C-2a mediated by (5)M2+TE (back-transfer); details: 20 μM holo-ACP4(4), 1 mM 14C-2a, with and without 1 μM (5)M2+TE
Experimental: Labeling of Holo-ACP4(4) with ^14C-2a Mediated by (5)M2+TE. Holo-ACP4(4) (20 μM) was incubated with 1 mM [1-^14C]-labeled 2a (custom synthesized by Amersham Pharmacia, specific activity 55 mCi/mmol) and 1 μM (5)M2+TE in reaction buffer C for 10 min at 30° C. The protein was precipitated with 75% acetone/H2O for 5 min at −80° C. After washing the pellet with 6.25% (w/v) TCA to remove excess salts followed by 500 μL of 75% acetone/H2O to remove residual, unbound 14 C-2a, the precipitated protein was resuspended in 8 μL of buffer A and 4 μL of SDS sample buffer, and resolved on a 420% SDS-PAGE gradient gel (Bio-Rad). The proteins were visualized with Coomassie blue stain and dried, and the radioactivity was detected either on a Packard InstantImager or by exposing the gel to X-ray film.

| Molecule | qualitative transfer of diketide to (5)M2+TE [1] | qualitative transfer of diketide to (5)M6+TE [2] | radiolabeling of the ACP by 14C-2a [3] |
| --- | --- | --- | --- |
| B1 | able to channel the diketide substrate | able to channel the diketide substrate |  |
| B2 |  |  | radiolabeled only in the reaction containing (5-M2+TE |
| B3 | able to channel the diketide substrate | able to channel the diketide substrate |  |
